Test results as given in PMC2613223 (International journal of cancer. Journal international du …, 2008).

Target: DNA-dependent protein kinase catalytic subunit (human (endogenous in HCT-116), UniProt P78527 1-4128)
Test: cell-based or functional assay

Chain of DNA-dependent protein kinase catalytic subunit (P78527 whole entry): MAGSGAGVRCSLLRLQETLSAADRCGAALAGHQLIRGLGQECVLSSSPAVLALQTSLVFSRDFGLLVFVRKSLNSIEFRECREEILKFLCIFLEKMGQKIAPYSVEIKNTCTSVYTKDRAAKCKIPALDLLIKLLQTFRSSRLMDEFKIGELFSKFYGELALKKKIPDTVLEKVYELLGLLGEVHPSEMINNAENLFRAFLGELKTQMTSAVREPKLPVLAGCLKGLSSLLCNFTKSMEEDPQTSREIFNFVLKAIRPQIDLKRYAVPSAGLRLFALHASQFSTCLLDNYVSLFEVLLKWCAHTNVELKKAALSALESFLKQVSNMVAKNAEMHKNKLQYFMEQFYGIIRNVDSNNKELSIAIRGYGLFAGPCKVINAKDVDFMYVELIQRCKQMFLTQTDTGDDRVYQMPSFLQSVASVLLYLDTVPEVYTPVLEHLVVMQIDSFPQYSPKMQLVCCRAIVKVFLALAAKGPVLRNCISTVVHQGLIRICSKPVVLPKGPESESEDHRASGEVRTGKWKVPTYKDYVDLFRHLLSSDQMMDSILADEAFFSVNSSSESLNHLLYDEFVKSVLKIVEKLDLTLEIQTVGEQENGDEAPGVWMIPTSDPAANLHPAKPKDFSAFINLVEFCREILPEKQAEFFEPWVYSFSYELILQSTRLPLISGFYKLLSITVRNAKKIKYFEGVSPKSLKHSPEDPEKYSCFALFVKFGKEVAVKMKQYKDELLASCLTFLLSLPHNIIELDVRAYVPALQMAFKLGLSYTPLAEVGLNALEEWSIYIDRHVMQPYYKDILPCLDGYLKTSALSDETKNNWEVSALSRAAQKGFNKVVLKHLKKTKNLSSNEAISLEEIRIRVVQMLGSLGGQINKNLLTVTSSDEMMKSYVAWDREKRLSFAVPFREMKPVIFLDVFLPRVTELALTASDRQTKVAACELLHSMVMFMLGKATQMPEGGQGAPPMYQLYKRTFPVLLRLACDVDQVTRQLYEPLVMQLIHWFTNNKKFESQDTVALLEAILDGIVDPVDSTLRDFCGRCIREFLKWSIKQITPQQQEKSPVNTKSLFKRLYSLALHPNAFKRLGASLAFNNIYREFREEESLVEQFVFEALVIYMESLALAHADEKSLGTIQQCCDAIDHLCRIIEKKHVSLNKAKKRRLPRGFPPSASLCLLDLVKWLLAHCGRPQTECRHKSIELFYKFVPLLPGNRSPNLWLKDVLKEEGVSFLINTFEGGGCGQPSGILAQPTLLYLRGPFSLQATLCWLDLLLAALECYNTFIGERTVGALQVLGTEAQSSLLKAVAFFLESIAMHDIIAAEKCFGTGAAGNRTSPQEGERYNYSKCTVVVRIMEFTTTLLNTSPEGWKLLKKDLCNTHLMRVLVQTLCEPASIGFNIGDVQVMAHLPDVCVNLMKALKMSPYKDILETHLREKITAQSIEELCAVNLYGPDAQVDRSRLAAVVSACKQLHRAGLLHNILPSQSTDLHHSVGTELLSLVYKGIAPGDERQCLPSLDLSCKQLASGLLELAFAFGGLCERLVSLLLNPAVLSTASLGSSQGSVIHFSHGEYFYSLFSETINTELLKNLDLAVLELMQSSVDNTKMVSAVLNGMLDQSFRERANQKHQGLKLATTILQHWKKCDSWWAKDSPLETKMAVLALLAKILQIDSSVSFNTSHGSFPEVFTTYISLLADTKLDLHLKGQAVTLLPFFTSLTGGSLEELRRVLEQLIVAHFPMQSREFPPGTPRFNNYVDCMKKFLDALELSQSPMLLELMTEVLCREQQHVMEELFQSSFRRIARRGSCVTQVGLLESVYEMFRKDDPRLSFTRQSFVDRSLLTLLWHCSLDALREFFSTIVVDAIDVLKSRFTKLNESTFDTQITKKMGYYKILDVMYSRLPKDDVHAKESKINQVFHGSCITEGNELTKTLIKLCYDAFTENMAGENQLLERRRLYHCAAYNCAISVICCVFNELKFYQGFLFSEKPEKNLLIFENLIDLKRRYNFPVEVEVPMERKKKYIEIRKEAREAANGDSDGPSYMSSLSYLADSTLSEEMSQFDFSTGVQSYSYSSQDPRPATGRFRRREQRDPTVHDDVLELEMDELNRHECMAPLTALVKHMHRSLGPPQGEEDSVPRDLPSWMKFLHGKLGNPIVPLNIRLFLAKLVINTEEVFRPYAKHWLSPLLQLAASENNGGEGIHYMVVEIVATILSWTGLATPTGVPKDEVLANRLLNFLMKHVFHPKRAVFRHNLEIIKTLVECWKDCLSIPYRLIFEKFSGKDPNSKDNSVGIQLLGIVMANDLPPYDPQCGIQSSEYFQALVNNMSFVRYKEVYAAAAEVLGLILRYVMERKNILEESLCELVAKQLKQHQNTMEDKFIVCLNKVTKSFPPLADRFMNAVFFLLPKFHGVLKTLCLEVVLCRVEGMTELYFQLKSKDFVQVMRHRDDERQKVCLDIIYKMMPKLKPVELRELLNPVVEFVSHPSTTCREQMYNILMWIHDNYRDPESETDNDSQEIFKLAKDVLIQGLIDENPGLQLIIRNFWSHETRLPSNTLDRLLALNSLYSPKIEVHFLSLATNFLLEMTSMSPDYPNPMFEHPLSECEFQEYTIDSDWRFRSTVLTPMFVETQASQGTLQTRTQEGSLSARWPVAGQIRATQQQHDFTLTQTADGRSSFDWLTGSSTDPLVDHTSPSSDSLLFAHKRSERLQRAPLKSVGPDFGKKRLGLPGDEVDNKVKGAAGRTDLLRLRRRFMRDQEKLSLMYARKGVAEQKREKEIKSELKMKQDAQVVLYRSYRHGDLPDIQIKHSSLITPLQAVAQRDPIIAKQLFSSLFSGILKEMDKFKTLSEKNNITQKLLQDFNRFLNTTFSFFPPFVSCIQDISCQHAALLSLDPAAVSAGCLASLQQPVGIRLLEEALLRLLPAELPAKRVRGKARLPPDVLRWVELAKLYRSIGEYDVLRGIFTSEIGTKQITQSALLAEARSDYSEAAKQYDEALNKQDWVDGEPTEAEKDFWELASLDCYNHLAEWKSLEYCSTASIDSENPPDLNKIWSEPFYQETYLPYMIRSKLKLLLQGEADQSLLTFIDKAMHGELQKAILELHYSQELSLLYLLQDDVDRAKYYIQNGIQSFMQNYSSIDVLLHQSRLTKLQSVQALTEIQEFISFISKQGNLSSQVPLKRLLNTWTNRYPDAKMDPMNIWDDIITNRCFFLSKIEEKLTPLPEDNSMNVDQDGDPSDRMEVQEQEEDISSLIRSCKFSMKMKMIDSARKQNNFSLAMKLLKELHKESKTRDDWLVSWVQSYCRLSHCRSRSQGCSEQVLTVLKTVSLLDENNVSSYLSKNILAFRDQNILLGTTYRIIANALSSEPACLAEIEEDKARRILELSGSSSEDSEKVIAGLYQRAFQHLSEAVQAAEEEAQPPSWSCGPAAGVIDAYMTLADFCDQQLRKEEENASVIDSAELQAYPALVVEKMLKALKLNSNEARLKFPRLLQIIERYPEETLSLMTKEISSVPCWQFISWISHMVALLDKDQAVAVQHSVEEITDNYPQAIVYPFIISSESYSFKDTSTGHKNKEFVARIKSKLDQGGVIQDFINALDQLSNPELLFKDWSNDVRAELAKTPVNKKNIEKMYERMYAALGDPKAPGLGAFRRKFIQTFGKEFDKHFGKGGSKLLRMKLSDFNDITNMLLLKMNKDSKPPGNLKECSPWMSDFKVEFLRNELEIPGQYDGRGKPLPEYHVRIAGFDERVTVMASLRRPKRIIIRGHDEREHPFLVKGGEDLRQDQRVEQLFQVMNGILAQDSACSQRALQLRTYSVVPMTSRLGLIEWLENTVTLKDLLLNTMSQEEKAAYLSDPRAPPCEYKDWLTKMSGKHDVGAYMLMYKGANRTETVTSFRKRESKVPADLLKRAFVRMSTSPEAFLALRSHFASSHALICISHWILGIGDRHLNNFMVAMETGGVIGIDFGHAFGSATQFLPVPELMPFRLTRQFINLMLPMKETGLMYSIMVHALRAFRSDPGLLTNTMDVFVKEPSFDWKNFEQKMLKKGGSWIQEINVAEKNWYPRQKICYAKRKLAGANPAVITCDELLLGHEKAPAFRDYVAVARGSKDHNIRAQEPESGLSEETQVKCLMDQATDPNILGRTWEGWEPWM

B1: 15-lipoxygenase-1 (enzyme, human, UniProt P16050 1-662, looked up)
chain: MGLYRIRVSTGASLYAGSNNQVQLWLVGQHGEAALGKRLWPARGKETELKVEVPEYLGPLLFVKLRKRHLLKDDAWFCNWISVQGPGAGDEVRFPCYRWVEGNGVLSLPEGTGRTVGEDPQGLFQKHREEELEERRKLYRWGNWKDGLILNMAGAKLYDLPVDERFLEDKRVDFEVSLAKGLADLAIKDSLNVLTCWKDLDDFNRIFWCGQSKLAERVRDSWKEDALFGYQFLNGANPVVLRRSAHLPARLVFPPGMEELQAQLEKELEGGTLFEADFSLLDGIKANVILCSQQHLAAPLVMLKLQPDGKLLPMVIQLQLPRTGSPPPPLFLPTDPPMAWLLAKCWVRSSDFQLHELQSHLLRGHLMAEVIVVATMRCLPSIHPIFKLIIPHLRYTLEINVRARTGLVSDMGIFDQIMSTGGGGHVQLLKQAGAFLTYSSFCPPDDLADRGLLGVKSSFYAQDALRLWEIIYRYVEGIVSLHYKTDVAVKDDPELQTWCREITEIGLQGAQDRGFPVSLQARDQVCHFVTMCIFTCTGQHASVHLGQLDWYSWVPNAPCTMRLPPPTTKDATLETVMATLPNFHQASLQMSITWQLGRRQPVMVAVGQHEEEYFSGPEPKAVLKKFREELAALDKEIEIRNAKLDMPYEYLRPSVVENSVAI
  DNA-PK kinase activity in 15-LOX-1 expressing whole cell extract lysates: 1.6 fold
